{"source": "paper PMC10547724", "about": "“Structural insights into the conformational changes of BTR1/SLC4A11 in complex with PIP2” (Nature Communications, 2023)", "proteins": {"B1": {"name": "BTR1 (SLC4A11), full-length human, wild type (natural protein, UniProt Q8NBS3-1 1-891, looked up)", "chain": "MSQVGGRGDRCTQEVQGLVHGAGDLSASLAENSPTMSQNGYFEDSSYYKCDTDDTFEAREEILGDEAFDTANSSIVSGESIRFFVNVNLEMQATNTENEATSGGCVLLHTSRKYLKLKNFKEEIRAHRDLDGFLAQASIVLNETATSLDNVLRTMLRRFARDPDNNEPNCNLDLLMAMLFTDAGAPMRGKVHLLSDTIQGVTATVTGVRYQQSWLCIICTMKALQKRHVCISRLVRPQNWGENSCEVRFVILVLAPPKMKSTKTAMEVARTFATMFSDIAFRQKLLETRTEEEFKEALVHQRQLLTMVSHGPVAPRTKERSTVSLPAHRHPEPPKCKDFVPFGKGIREDIARRFPLYPLDFTDGIIGKNKAVGKYITTTLFLYFACLLPTIAFGSLNDENTDGAIDVQKTIAGQSIGGLLYALFSGQPLVILLTTAPLALYIQVIRVICDDYDLDFNSFYAWTGLWNSFFLALYAFFNLSLVMSLFKRSTEEIIALFISITFVLDAVKGTVKIFWKYYYGHYLDDYHTKRTSSLVSLSGLGASLNASLHTALNASFLASPTELPSATHSGQATAVLSLLIMLGTLWLGYTLYQFKKSPYLHPCVREILSDCALPIAVLAFSLISSHGFREIEMSKFRYNPSESPFAMAQIQSLSLRAVSGAMGLGFLLSMLFFIEQNLVAALVNAPENRLVKGTAYHWDLLLLAIINTGLSLFGLPWIHAAYPHSPLHVRALALVEERVENGHIYDTIVNVKETRLTSLGASVLVGLSLLLLPVPLQWIPKPVLYGLFLYIALTSLDGNQLVQRVALLLKEQTAYPPTHYIRRVPQRKIHYFTGLQVLQLLLLCAFGMSSLPYMKMIFPLIMIAMIPIRYILLPRIIEAKYLDVMDAEHRP", "notes": "human BTR1 (SLC4A11), full length, residues 1-891 (NTD 1-307, TMD 336-891), amplified from human HEK293 cDNA; GFP and His tag removed with TEV protease before gel filtration; Residues 1-103, 308-335 and 888-891 were not built in the model; also called NaBC1; bicarbonate transporter-related protein-1; source: HEK293F cells, baculovirus (BacMam) infection, purified (Ni-NTA, TEV cleavage, gel …)"}, "B2": {"name": "BTR1 (SLC4A11) R125H, full-length human, pathogenic mutant (natural protein, UniProt Q8NBS3-1 1-891, looked up)", "chain": "B1 chain with R125H", "notes": "human BTR1 (SLC4A11), full length, with the disease-associated mutation R125H made in the PBM-SLC4A11 plasmid; GFP and His tag removed with TEV protease before gel filtration; also called BTR1-R125H; BTR1_(IF/R125H); source: HEK293F cells, baculovirus (BacMam) infection, purified (Ni-NTA, TEV cleavage, gel filtration) in GDN micelles; not shown: GFP, C-terminal, cleaved; His8, C-terminal, cleaved"}}, "molecular_target": "the molecule itself", "experiment": "cryo-EM structure; single-particle cryo-EM of protein purified in GDN micelles (150 mM NaCl, 20 mM HEPES pH 7.4); wild type apo or with NH4Cl (outward-facing), R125H mutant (inward-facing; pH not named for it)", "note": "Residue numbers refer to the chain shown, from its start. Names and notes keep the numbering of the source.", "data": [{"protein": "B1", "values": [{"measurement": "stoichiometry N", "result": 2}]}, {"protein": "B2", "values": [{"measurement": "stoichiometry N", "result": 2}]}]}
